Reference: patent publication US20210230599, “STEM-LOOP COMPOSITIONS AND METHODS FOR INHIBITING INTERLEUKIN-8” (VITRISA THERAPEUTICS, INC., published 2021)

Columns and labels:
[1] = target: T1, Interleukin-8 (IL8, CXCL8), C-terminal His-tagged (Homo sapiens, UniProt P10145 SEQ:1-72); assay: TR-FRET; bead flow 20 nM; conditions: tags: C-terminal 6xHis (Sino Biological); label: Alexa Fluor 647
Experimental: (§1) Aptamers were synthesized and labeled with ALEXA FLUOR® 647, and binding to IL8 was quantified by Time-Resolved Fluorescence Resonance Energy Transfer (TR-FRET). Briefly, 2-fold dilutions of thermally equilibrated aptamers were made in TR-FRET Buffer (50 mM MOPS, pH 7.4, 125 mM NaCl, 5 mM KCl, 50 μM CHAPS, 0.1 mg/mL BSA, 1 mM CaCl₂ and 1 mM MgCl₂). […] of aptamer or control solution was added to 10 μL of 15 nM C-His-tagged-IL8 (Sino Biological) in a black wall half-area plate (Corning). In the same plate, 10 μl of aptamer solution was added to 10 μl of TR-FRET buffer alone to use for background subtraction. 10 μl of 15 nM anti-His-Eu (Perkin Elmer) was added to each well, the plate was covered with a plate seal and subsequently incubated in the dark for 1 hour at room temperature. The plate was read on a Biotek CYTATION™ 5 plate reader. Samples were excited at 330 nm and fluorescent values were collected at 665 nm. […] Apparent Kd values obtained for the fits are calculated as the concentration of half-maximal binding and shown in Table 10, and fit curves as FIG. 6. […] It is also possible that differences may arise due to TR-FRET being a homogenous solution binding assay, while bead binding has immobilized ligand and is non-homogenous, so bound aptamers may dissociate during analysis resulting in higher calculated Kd values.

[2] = target: T1, Interleukin-8 (IL8, CXCL8), C-terminal …; assay: TR-FRET, 5 nM IL8, protein-limited; bead flow 13 nM; conditions: tags: C-terminal 6xHis (Sino Biological); label: Alexa Fluor 647
Experimental: as §1

[3] = target: T1, Interleukin-8 (IL8, CXCL8), C-terminal …; assay: TR-FRET, 1 mM Ca, 1 mM Mg, room temperature; conditions: tags: C-terminal 6xHis (Sino Biological); label: Alexa Fluor 647
Experimental: as §1

[4] = target: T1, Interleukin-8 (IL8, CXCL8), C-terminal …; assay: TR-FRET, 5 nM IL8, protein-limited; conditions: tags: C-terminal 6xHis (Sino Biological); label: Alexa Fluor 647
[5] = target: T1, Interleukin-8 (IL8, CXCL8), C-terminal …; assay: flow; appreciable binding, bead-immobilized IL8, 10 and 100 nM aptamer; conditions: tags: C-terminal 6xHis (Sino Biological); label: Alexa Fluor 647
Experimental: (§2) Chemically synthesized aptamers (Table 8) were labeled with ALEXA FLUOR® 647 and were used to test binding to IL8 in a bead based assay using flow cytometry. In brief, fluorescently labeled aptamers were heated at 90° C. for 3 minutes in SB1T and were allowed to cool at room temperature for 5 minutes, after which they were incubated with c-his-IL8, immobilized on DYNABEADS® His-Tag Isolation and Pulldown beads in SB1T buffer containing 0.1% BSA, 1 μg/μl ssDNA and 1 μg/μl heparin sulphate at two different aptamer concentrations: 10 nM and 100 nM. Following incubation for 30 minutes at 37° C., the beads were washed three times with SB1T, re-suspended in SB1T buffer and analyzed by flow cytometry. […] Negligible or complete lack of binding seen in cases of some aptamers (e.g., Aptamers 4, 9, 10, and 16) could be due to the removal of the constant regions. No binding was observed when similar experiments were performed in the absence of protein (data not shown).

[6] = target: T1, Interleukin-8 (IL8, CXCL8), C-terminal …; assay: TR-FRET; bead flow 7 nM; conditions: tags: C-terminal 6xHis (Sino Biological); label: Alexa Fluor 647
Experimental: as §1

[7] = target: T1, Interleukin-8 (IL8, CXCL8), C-terminal …; assay: TR-FRET, 500 pM IL8; Table 10 gives 2 nM; bead flow 13 nM; conditions: tags: C-terminal 6xHis (Sino Biological); label: Alexa Fluor 647; stem-loop (3 stems, 4 loops)
Experimental: Under these assay conditions, the ability to measure the affinity accurately is limited by the input IL8 protein concentration, and the apparent Kd under these protein-limiting conditions was determined to be 8 nM.

[8] = target: T1, Interleukin-8 (IL8, CXCL8), C-terminal …; assay: competition; competition TR-FRET; S2 disrupted; conditions: tags: C-terminal 6xHis (Sino Biological)
Experimental: (§3) To better understand the sequence requirements and to confirm the stem structures of members of the Aptamer 3 family as determined from sequence covariation analysis from both the primary and secondary (degenerate) selections, a series of variants which included mutations and deletions to the predicted stems were synthesized and screened (Table 24). Activity of each of these variants were tested using a time resolved competition TR-FRET assay in which the labeled parent Aptamer 3 was competed with increasing concentrations of unlabeled variants for binding to IL8 (FIG. 14). Briefly, 2-fold dilutions of thermally equilibrated aptamers were made in TR-FRET Buffer (50 mM MOPS, pH 7.4, 125 mM NaCl, 5 mM KCl, 50 μM CHAPS, 0.1 mg/mL BSA, 1 mM CaCl₂, and 1 mM MgCl₂). 5 μL of aptamer or control solution was added to 5 μl mix of 10 nM C-terminal His-tagged-IL8, 60 nM ALEXA FLUOR® 647-labeled Aptamer, and 5 nM anti-His-Eu (Perkin Elmer) in a black wall low volume 384 well plate (Greiner). For control, 5 μl of 1000-fold excess of unlabeled parent aptamer or 5 μl TR-FRET buffer alone was added to the mix of ALEXA FLUOR® 647-labeled aptamer, His-IL8, and anti-His-Eu. The plate was covered with a plate seal and subsequently incubated in the dark for 1 hour at room temperature. The plate was read on a Biotek CYTATION™ 5 plate reader. […]

[9] = target: T1, Interleukin-8 (IL8, CXCL8), C-terminal …; assay: flow; bead-immobilized IL8, 37 C; conditions: tags: C-terminal 6xHis (Sino Biological); label: Alexa Fluor 647
Experimental: as §2
Flow cytometry was used to measure the apparent binding affinity for Aptamer 2, Aptamer 3, Aptamer 5, Aptamer 6, Aptamer 8, Aptamer 11, Aptamer 12, Aptamer 13, Aptamer 14, Aptamer 20, Aptamer 22, Aptamer 23, and Aptamer 25 using bead immobilized c-his-IL8. […] Following incubation for 30 minutes at 37° C., the beads were washed and fluorescence was measured by flow cytometry. […]

[10] = target: T1, Interleukin-8 (IL8, CXCL8), C-terminal …; assay: competition; competition TR-FRET; conditions: tags: C-terminal 6xHis (Sino Biological); stem-loop
[11] = target: T1, Interleukin-8 (IL8, CXCL8), C-terminal …; assay: TR-FRET, 5 nM IL8, protein-limited; bead flow 18 nM; conditions: tags: C-terminal 6xHis (Sino Biological); label: Alexa Fluor 647
Experimental: as §1

[12] = target: T1, Interleukin-8 (IL8, CXCL8), C-terminal …; assay: TR-FRET; bead flow 16 nM; conditions: tags: C-terminal 6xHis (Sino Biological); label: Alexa Fluor 647; stem-loop (Aptamer 3 family)
Experimental: as §1

[13] = target: T1, Interleukin-8 (IL8, CXCL8), C-terminal …; assay: competition; competition TR-FRET; S3 mutant; conditions: tags: C-terminal 6xHis (Sino Biological)
Experimental: as §3

[14] = target: T1, Interleukin-8 (IL8, CXCL8), C-terminal …; assay: competition; competition TR-FRET; S3 extended; conditions: tags: C-terminal 6xHis (Sino Biological)
Experimental: as §3

[15] = target: T1, Interleukin-8 (IL8, CXCL8), C-terminal …; assay: TR-FRET; GAG-site binder, displaced by heparan sulfate IC50 9 uM; conditions: tags: C-terminal 6xHis (Sino Biological); label: Alexa Fluor 647
Description: Differences between these TR-FRET values (Table 10) and those from the bead binding assay (Table 9) may be due to a different limiting concentration of IL8. […] It is also possible that differences may arise due to TR-FRET being a homogenous solution binding assay, while bead binding has immobilized ligand and is non-homogenous, so bound aptamers may dissociate during analysis resulting in higher calculated Kd values.
Aptamer 1 (C6NH₂-[…]-idT, where C and U are 2′F, A and G are 2′OH; C6NH₂ is a hexylamino linker; and idT is a 3′ inverted deoxythymidine residue (SEQ ID NO: 75 with modifications)) was used as a positive control for an aptamer that binds to the GAG binding site. Aptamers 1, 3, 6, 8 and 11 were labeled with ALEXAFLUOR® 647 as described in Example 3. […] Briefly, 2-fold dilutions of heparan sulfate (Sigma Aldrich) were made in TR-FRET Buffer (50 mM MOPS, pH 7.4, 125 mM NaCl, 5 mM KCl, 50 μM CHAPS, 0.1 mg/mL BSA, 1 mM CaCl₂ and 1 mM MgCl₂). […] heparan sulfate or control solution were added to […] a mixture of 10 nM C-His-tagged-IL8 (Sino Biological), 5 nM anti-His-Eu (Perkin Elmer), and 30 nM AlexaFluor® 647-labeled aptamer in TR-FRET in a black low volume 384-well plate (Greiner). The plate was covered with a plate seal and subsequently incubated in the dark for 1 hour at room temperature. The plate was read on a Biotek CYTATION™ 5 plate reader. […]

## UCGUGAAGGGCGAUUCUGGUGCGUGUUCCCUCGCGU (ssRNA, 2'-F G, 2'-OMe A/C/U, 5' C6NH2, 3' idT) [Aptamer 5]
[1]
  Kd: 10 nM

## UCCGGUUGCUGAGAUGUGAGAUUAAUGUCCACCGUU (ssRNA, 2'-F G, 2'-OMe A/C/U, 5' C6NH2, 3' idT) [Aptamer 11]
[2]
  Kd: 2 nM

## UGUCGCCCUACGUAAACCGCUAUUUGCGACUGCGGU (ssRNA, 2'-F G, 2'-OMe A/C/U, 5' C6NH2, 3' idT) [Aptamer 19]
[3]
  Kd: 4 nM

## UUAUUGCGGCCCGAUUUACCGAAUUUGCCGUCCGGU (ssRNA, 2'-F G, 2'-OMe A/C/U, 5' C6NH2, 3' idT) [Aptamer 7]
[4]
  Kd: 2 nM

## UCAUGGGUUGCCAACCGGCCGUGUAUGUACGUACAU (ssRNA, 2'-F G, 2'-OMe A/C/U, 5' C6NH2, 3' idT) [Aptamer 25]
[5]
  binding result: binds

## UCUGAAUCGGCUGAAACGGGAGCAUUAAUGUCCGGU (ssRNA, 2'-F G, 2'-OMe A/C/U, 5' C6NH2, 3' idT) [Aptamer 22]
[6]
  Kd: 15 nM

## UGAUGACGGUAGAUUACGGGUAGAGUGACCGCAUCU (ssRNA, 2'-F G, 2'-OMe A/C/U, 5' C6NH2, 3' idT) [Aptamer 3]
[7]
  Kd: 0.214 nM

## UGAUGACCCUAGAUUACGGGUAGAGUGACCGCAUCU (ssRNA, 2'-F G, 2'-OMe A/C/U, 5' C6NH2, 3' idT) [Aptamer 188]
[8]
  binding signal: > 10 fold worse than Aptamer 3

## UGACUGCGGUCGCAAGUUACGGAUUUGCCGCCCCGU (ssRNA, 2'-F G, 2'-OMe A/C/U, 5' C6NH2, 3' idT) [Aptamer 20]
[9]
  Kd: 15 nM

## GCGACGGUAGAUUACGGGUAGAGUGACCGCGC (ssRNA, 2'-F G, 2'-OMe A/C/U, 5' C6NH2, 3' idT) [Aptamer 42]
[10]
  binding signal: ~1.4 fold worse than Aptamer 3

## UCAGGCUGAAAAGUGAGCUAUAAUGUCCUGAUUGAU (ssRNA, 2'-F G, 2'-OMe A/C/U, 5' C6NH2, 3' idT) [Aptamer 6]
[11]
  Kd: 2 nM

## UUGGCCACAGUAGAUUUCGGUGCGUGUGACUGGGCU (ssRNA, 2'-F G, 2'-OMe A/C/U, 5' C6NH2, 3' idT) [Aptamer 12]
[12]
  Kd: 12 nM

## GGCGACGGUAGACUACGGGUAGAGUGACCGCGCC (ssRNA, 2'-F G, 2'-OMe A/C/U, 5' C6NH2, 3' idT) [Aptamer 89]
[13]
  binding signal: > 10 fold worse than Aptamer 3

## GGCGACGGUAGAUCACGGGUAGGGUGACCGCGCC (ssRNA, 2'-F G, 2'-OMe A/C/U, 5' C6NH2, 3' idT) [Aptamer 90]
[14]
  binding signal: > 10 fold worse than Aptamer 3

## GGGGGCUUAUCAUUCCAUUUAGUGUUAUGAUAACC (ssRNA, 2'-F C and U, 2'-OH A and G, 5' C6NH2, 3' idT) [Aptamer 1]
[15]
  Kd: 3 nM
